One test addresses pro-N-cadherin (human) (UniProt P19022). The test is described as follows: co-IP.
The next test concerns the target pro-E-cadherin (human) (UniProt P12830). Briefly: co-IP.

Experimental findings from article PMC2742162 are described below.

Sequence of α-catenin (P35221 whole entry): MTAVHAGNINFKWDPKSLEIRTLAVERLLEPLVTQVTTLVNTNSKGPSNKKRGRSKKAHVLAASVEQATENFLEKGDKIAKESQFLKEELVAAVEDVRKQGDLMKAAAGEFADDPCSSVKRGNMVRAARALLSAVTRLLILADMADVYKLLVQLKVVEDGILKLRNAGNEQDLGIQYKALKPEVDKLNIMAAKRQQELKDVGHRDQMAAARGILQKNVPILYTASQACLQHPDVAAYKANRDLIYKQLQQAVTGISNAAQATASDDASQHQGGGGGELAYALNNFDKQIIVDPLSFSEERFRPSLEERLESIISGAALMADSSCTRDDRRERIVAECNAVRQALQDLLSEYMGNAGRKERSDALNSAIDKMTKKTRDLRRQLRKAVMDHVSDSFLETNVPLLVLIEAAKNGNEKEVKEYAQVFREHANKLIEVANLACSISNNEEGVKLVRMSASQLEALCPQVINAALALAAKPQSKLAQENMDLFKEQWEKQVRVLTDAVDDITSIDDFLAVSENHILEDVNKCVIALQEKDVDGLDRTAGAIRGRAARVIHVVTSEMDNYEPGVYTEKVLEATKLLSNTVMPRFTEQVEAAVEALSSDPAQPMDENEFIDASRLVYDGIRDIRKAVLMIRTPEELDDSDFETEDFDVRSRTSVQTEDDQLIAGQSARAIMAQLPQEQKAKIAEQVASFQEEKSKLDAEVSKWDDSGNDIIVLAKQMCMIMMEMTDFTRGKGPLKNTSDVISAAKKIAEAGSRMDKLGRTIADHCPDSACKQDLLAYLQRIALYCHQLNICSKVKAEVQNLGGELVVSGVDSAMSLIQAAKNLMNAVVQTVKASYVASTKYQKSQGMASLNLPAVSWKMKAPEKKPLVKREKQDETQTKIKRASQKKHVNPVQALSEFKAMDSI
Sequence of UniProt P12830 (P12830 23-882): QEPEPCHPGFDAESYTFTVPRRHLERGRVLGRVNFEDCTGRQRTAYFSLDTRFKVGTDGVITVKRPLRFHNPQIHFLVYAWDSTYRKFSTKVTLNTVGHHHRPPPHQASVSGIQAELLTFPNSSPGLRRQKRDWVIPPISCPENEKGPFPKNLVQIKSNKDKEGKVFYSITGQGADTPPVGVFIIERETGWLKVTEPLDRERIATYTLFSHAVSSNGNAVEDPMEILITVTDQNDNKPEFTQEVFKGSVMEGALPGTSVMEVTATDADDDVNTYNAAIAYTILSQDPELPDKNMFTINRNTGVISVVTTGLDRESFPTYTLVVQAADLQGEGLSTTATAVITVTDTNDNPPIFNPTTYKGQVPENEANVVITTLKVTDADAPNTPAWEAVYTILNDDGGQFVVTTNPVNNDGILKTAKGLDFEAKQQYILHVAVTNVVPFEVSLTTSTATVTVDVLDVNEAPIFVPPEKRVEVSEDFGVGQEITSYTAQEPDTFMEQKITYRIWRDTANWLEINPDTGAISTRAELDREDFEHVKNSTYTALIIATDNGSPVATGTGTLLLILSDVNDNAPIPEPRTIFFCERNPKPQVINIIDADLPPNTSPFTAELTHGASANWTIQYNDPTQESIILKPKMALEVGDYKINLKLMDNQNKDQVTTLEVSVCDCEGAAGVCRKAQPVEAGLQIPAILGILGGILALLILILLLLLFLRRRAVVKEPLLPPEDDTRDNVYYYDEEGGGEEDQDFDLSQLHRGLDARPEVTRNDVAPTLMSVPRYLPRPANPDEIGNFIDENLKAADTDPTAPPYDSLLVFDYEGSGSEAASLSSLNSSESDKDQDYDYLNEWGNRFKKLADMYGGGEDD
Sequence of UniProt P19022 (P19022 26-906): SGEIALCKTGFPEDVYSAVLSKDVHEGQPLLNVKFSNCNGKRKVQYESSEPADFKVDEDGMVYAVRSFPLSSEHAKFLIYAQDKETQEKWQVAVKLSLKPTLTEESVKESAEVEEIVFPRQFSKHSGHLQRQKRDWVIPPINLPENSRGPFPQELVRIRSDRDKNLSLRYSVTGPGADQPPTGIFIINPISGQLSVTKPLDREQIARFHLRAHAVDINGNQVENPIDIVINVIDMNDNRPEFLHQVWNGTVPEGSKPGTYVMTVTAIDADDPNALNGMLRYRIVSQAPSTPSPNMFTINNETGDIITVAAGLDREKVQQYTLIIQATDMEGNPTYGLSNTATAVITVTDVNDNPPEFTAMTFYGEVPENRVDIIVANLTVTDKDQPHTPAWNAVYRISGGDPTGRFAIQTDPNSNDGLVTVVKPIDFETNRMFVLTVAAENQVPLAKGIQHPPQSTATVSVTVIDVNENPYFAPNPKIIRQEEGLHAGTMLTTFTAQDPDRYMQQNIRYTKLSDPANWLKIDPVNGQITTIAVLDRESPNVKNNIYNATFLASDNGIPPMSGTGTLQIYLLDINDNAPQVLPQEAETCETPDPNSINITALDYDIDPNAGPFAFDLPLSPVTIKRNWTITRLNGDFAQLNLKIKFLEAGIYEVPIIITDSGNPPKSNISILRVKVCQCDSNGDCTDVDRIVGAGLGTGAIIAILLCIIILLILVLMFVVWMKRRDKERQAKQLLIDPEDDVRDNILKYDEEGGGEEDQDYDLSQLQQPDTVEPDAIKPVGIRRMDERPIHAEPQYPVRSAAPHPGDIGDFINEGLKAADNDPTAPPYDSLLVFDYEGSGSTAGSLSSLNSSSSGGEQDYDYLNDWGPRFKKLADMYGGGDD

Take “α-catenin (from UniProt P35221 1-906) (natural protein)”: the percent of pro-cadherin molecules in a complex with α-catenin in the test with pro-N-cadherin (human) was 92%; in the test with pro-E-cadherin (human), 81%.
